Source: the Human Domainome abundance scans (Beltran et al. 2025)
± gives the uncertainty stated by the source.

Experiment: abundance fitness (aPCA) (normalised: wild type 0, dead -1); higher = more abundant; growth selection in yeast, the domain comes from the species named
Settings: Homo sapiens

“SAFB-like transcription modulator L34S, Q9NWH9” and “SAFB-like transcription modulator L34T, Q9NWH9” are within error of each other in abundance fitness: -0.778 ± 0.038 for the first, -0.831 ± 0.067 for the second.

Going from “SAFB-like transcription modulator L34V, Q9NWH9” to “SAFB-like transcription modulator L34W, Q9NWH9”, the abundance fitness falls from -0.614 ± 0.068 to -1.01 ± 0.057.

“SAFB-like transcription modulator L39A, Q9NWH9” and “SAFB-like transcription modulator L39C, Q9NWH9” are within error of each other in abundance fitness: -0.498 ± 0.069 for the first, -0.446 ± 0.079 for the second.

First: SAFB-like transcription modulator L39D, Q9NWH9
Second: SAFB-like transcription modulator L39E, Q9NWH9
The abundance fitness of the first is lower: -0.755 ± 0.075 for the first, -0.365 ± 0.054 for the second.

“SAFB-like transcription modulator L39F, Q9NWH9” and “SAFB-like transcription modulator L39G, Q9NWH9” are within error of each other in abundance fitness: -0.409 ± 0.077 for the first, -0.475 ± 0.045 for the second.

“SAFB-like transcription modulator L39H, Q9NWH9” and “SAFB-like transcription modulator L39I, Q9NWH9” are within error of each other in abundance fitness: -0.275 ± 0.081 for the first, -0.231 ± 0.074 for the second.

Compared with “SAFB-like transcription modulator L39K, Q9NWH9”, “SAFB-like transcription modulator L39M, Q9NWH9” is higher in abundance fitness: -0.179 ± 0.046 for the first, 0.017 ± 0.047 for the second.

First: SAFB-like transcription modulator L39N, Q9NWH9
Second: SAFB-like transcription modulator L39P, Q9NWH9
The abundance fitness of the first is higher: -0.596 ± 0.12 for the first, -0.81 ± 0.067 for the second.

First: SAFB-like transcription modulator L39Q, Q9NWH9
Second: SAFB-like transcription modulator L39R, Q9NWH9
The abundance fitness of the first is lower: -0.499 ± 0.11 for the first, -0.296 ± 0.05 for the second.

Going from “SAFB-like transcription modulator L39T, Q9NWH9” to “SAFB-like transcription modulator L39V, Q9NWH9”, the abundance fitness rises from -0.631 ± 0.043 to -0.356 ± 0.059.

Compared with “SAFB-like transcription modulator L39W, Q9NWH9”, “SAFB-like transcription modulator L39Y, Q9NWH9” is higher in abundance fitness: -0.591 ± 0.084 for the first, -0.305 ± 0.038 for the second.

“SAFB-like transcription modulator L48A, Q9NWH9” and “SAFB-like transcription modulator L48C, Q9NWH9” are within error of each other in abundance fitness: -0.432 ± 0.053 for the first, -0.51 ± 0.042 for the second.

First: SAFB-like transcription modulator L48D, Q9NWH9
Second: SAFB-like transcription modulator L48E, Q9NWH9
The abundance fitness of the first is higher: -0.274 ± 0.071 for the first, -0.478 ± 0.086 for the second.

First: SAFB-like transcription modulator L48F, Q9NWH9
Second: SAFB-like transcription modulator L48G, Q9NWH9
The abundance fitness of the first is lower: -0.886 ± 0.062 for the first, -0.472 ± 0.054 for the second.

“SAFB-like transcription modulator L48H, Q9NWH9” and “SAFB-like transcription modulator L48I, Q9NWH9” are within error of each other in abundance fitness: -0.52 ± 0.059 for the first, -0.513 ± 0.063 for the second.

Compared with “SAFB-like transcription modulator L48K, Q9NWH9”, “SAFB-like transcription modulator L48M, Q9NWH9” is higher in abundance fitness: -0.371 ± 0.055 for the first, -0.075 ± 0.04 for the second.

“SAFB-like transcription modulator L48N, Q9NWH9” and “SAFB-like transcription modulator L48P, Q9NWH9” are the same in abundance fitness: -0.489 ± 0.043 for the first, -0.489 ± 0.048 for the second.

“SAFB-like transcription modulator L48R, Q9NWH9” and “SAFB-like transcription modulator L48S, Q9NWH9” are within error of each other in abundance fitness: -0.537 ± 0.043 for the first, -0.585 ± 0.039 for the second.

“SAFB-like transcription modulator L48T, Q9NWH9” and “SAFB-like transcription modulator L48V, Q9NWH9” are within error of each other in abundance fitness: -0.538 ± 0.043 for the first, -0.607 ± 0.054 for the second.

First: SAFB-like transcription modulator L48W, Q9NWH9
Second: SAFB-like transcription modulator L48Y, Q9NWH9
The abundance fitness of the first is higher: -0.613 ± 0.04 for the first, -0.788 ± 0.043 for the second.

“SAFB-like transcription modulator L52A, Q9NWH9” and “SAFB-like transcription modulator L52C, Q9NWH9” are within error of each other in abundance fitness: -0.702 ± 0.04 for the first, -0.827 ± 0.12 for the second.

“SAFB-like transcription modulator L52D, Q9NWH9” and “SAFB-like transcription modulator L52E, Q9NWH9” are within error of each other in abundance fitness: -0.497 ± 0.05 for the first, -0.456 ± 0.15 for the second.

“SAFB-like transcription modulator L52F, Q9NWH9” and “SAFB-like transcription modulator L52G, Q9NWH9” are within error of each other in abundance fitness: -0.568 ± 0.12 for the first, -0.611 ± 0.048 for the second.

“SAFB-like transcription modulator L52M, Q9NWH9” and “SAFB-like transcription modulator L52N, Q9NWH9” are within error of each other in abundance fitness: -0.456 ± 0.1 for the first, -0.385 ± 0.23 for the second.

“SAFB-like transcription modulator L52P, Q9NWH9” and “SAFB-like transcription modulator L52Q, Q9NWH9” are within error of each other in abundance fitness: -0.467 ± 0.12 for the first, -0.927 ± 0.45 for the second.

Compared with “SAFB-like transcription modulator L52R, Q9NWH9”, “SAFB-like transcription modulator L52S, Q9NWH9” is higher in abundance fitness: -0.808 ± 0.057 for the first, -0.563 ± 0.087 for the second.

“SAFB-like transcription modulator L52T, Q9NWH9” and “SAFB-like transcription modulator L52V, Q9NWH9” are within error of each other in abundance fitness: -0.642 ± 0.16 for the first, -0.412 ± 0.077 for the second.

Compared with “SAFB-like transcription modulator L52W, Q9NWH9”, “SAFB-like transcription modulator L52Y, Q9NWH9” is higher in abundance fitness: -1.15 ± 0.14 for the first, -0.651 ± 0.17 for the second.

Going from “SAFB-like transcription modulator L68A, Q9NWH9” to “SAFB-like transcription modulator L68C, Q9NWH9”, the abundance fitness falls from 0.219 ± 0.15 to -0.092 ± 0.097.

“SAFB-like transcription modulator L68F, Q9NWH9” and “SAFB-like transcription modulator L68G, Q9NWH9” are within error of each other in abundance fitness: -0.164 ± 0.09 for the first, -0.165 ± 0.086 for the second.

“SAFB-like transcription modulator L68H, Q9NWH9” and “SAFB-like transcription modulator L68I, Q9NWH9” are within error of each other in abundance fitness: 0.053 ± 0.29 for the first, 0.295 ± 0.089 for the second.

Compared with “SAFB-like transcription modulator L68M, Q9NWH9”, “SAFB-like transcription modulator L68P, Q9NWH9” is higher in abundance fitness: -0.188 ± 0.061 for the first, 0.022 ± 0.062 for the second.

“SAFB-like transcription modulator L68Q, Q9NWH9” and “SAFB-like transcription modulator L68R, Q9NWH9” are within error of each other in abundance fitness: -0.14 ± 0.075 for the first, -0.165 ± 0.067 for the second.

“SAFB-like transcription modulator L68S, Q9NWH9” and “SAFB-like transcription modulator L68T, Q9NWH9” are within error of each other in abundance fitness: -0.16 ± 0.063 for the first, -0.135 ± 0.065 for the second.

“SAFB-like transcription modulator L68V, Q9NWH9” and “SAFB-like transcription modulator L68W, Q9NWH9” are within error of each other in abundance fitness: -0.075 ± 0.063 for the first, -0.181 ± 0.052 for the second.

Going from “SAFB-like transcription modulator L68Y, Q9NWH9” to “SAFB-like transcription modulator N38A, Q9NWH9”, the abundance fitness rises from -0.763 ± 0.31 to -0.296 ± 0.063.

“SAFB-like transcription modulator N38D, Q9NWH9” and “SAFB-like transcription modulator N38E, Q9NWH9” are within error of each other in abundance fitness: -0.222 ± 0.086 for the first, -0.153 ± 0.034 for the second.

Going from “SAFB-like transcription modulator N38F, Q9NWH9” to “SAFB-like transcription modulator N38G, Q9NWH9”, the abundance fitness rises from -0.24 ± 0.083 to -0.002 ± 0.047.

First: SAFB-like transcription modulator N38H, Q9NWH9
Second: SAFB-like transcription modulator N38K, Q9NWH9
The abundance fitness of the first is lower: -0.492 ± 0.2 for the first, -0.092 ± 0.047 for the second.

“SAFB-like transcription modulator N38L, Q9NWH9” and “SAFB-like transcription modulator N38M, Q9NWH9” are within error of each other in abundance fitness: -0.247 ± 0.05 for the first, -0.192 ± 0.057 for the second.

First: SAFB-like transcription modulator N38P, Q9NWH9
Second: SAFB-like transcription modulator N38Q, Q9NWH9
The abundance fitness of the first is lower: -1.06 ± 0.15 for the first, -0.04 ± 0.046 for the second.

“SAFB-like transcription modulator N38R, Q9NWH9” and “SAFB-like transcription modulator N38S, Q9NWH9” are within error of each other in abundance fitness: -0.141 ± 0.044 for the first, -0.105 ± 0.048 for the second.

First: SAFB-like transcription modulator N38T, Q9NWH9
Second: SAFB-like transcription modulator N38V, Q9NWH9
The abundance fitness of the first is higher: -0.233 ± 0.073 for the first, -0.688 ± 0.052 for the second.

“SAFB-like transcription modulator N38W, Q9NWH9” and “SAFB-like transcription modulator N38Y, Q9NWH9” are within error of each other in abundance fitness: -0.368 ± 0.037 for the first, -0.455 ± 0.11 for the second.

“SAFB-like transcription modulator N65A, Q9NWH9” and “SAFB-like transcription modulator N65C, Q9NWH9” are within error of each other in abundance fitness: -0.236 ± 0.065 for the first, -0.126 ± 0.074 for the second.

“SAFB-like transcription modulator N65D, Q9NWH9” and “SAFB-like transcription modulator N65E, Q9NWH9” are within error of each other in abundance fitness: -0.186 ± 0.082 for the first, -0.165 ± 0.069 for the second.

Compared with “SAFB-like transcription modulator N65F, Q9NWH9”, “SAFB-like transcription modulator N65G, Q9NWH9” is lower in abundance fitness: -0.101 ± 0.065 for the first, -0.365 ± 0.052 for the second.

“SAFB-like transcription modulator N65H, Q9NWH9” and “SAFB-like transcription modulator N65K, Q9NWH9” are within error of each other in abundance fitness: -0.166 ± 0.084 for the first, -0.103 ± 0.038 for the second.

“SAFB-like transcription modulator N65L, Q9NWH9” and “SAFB-like transcription modulator N65M, Q9NWH9” are within error of each other in abundance fitness: -0.206 ± 0.035 for the first, -0.135 ± 0.055 for the second.

Going from “SAFB-like transcription modulator N65P, Q9NWH9” to “SAFB-like transcription modulator N65Q, Q9NWH9”, the abundance fitness rises from -0.575 ± 0.036 to -0.176 ± 0.076.

“SAFB-like transcription modulator N65R, Q9NWH9” and “SAFB-like transcription modulator N65S, Q9NWH9” are within error of each other in abundance fitness: -0.094 ± 0.045 for the first, -0.162 ± 0.04 for the second.

Substance “SAFB-like transcription modulator N65T, Q9NWH9” has an abundance fitness of -0.281 ± 0.059.
